This is an account of results in PMC10778704, “Comparative Analysis of Cyclization Techniques in Stapled Peptides: Structural Insights into Protein–Protein Interactions in a SARS-CoV-2 Spike RBD/hACE2 Model System” (International Journal of Molecular Sciences, 2023).

Data set [1] is described as follows: circular dichroism. To be noted: 10 mM Na phosphate; pH 7.4; 25 °C; 100 uM.
The nature of data set [2]: in vitro. To be noted: rat, plasma.
The conditions of data set [3]: 37 °C, comparison in words.

Bridge positions count the residues as written; N and C are the ends. Square brackets hold non-standard residues; d marks the D form. Peptide text beside a SMILES is read from it. S5 = C=CCCC[C@](C)(N)C(=O)O

Consider `CC(=O)N[C@@H](CC(=O)O)C(=O)N[C@@H](CCCCN)C(=O)N[C@@H]1Cc2cn(nn2)CCCC[C@@H](C(=O)N[C@@H](CCC(=O)O)C(=O)N[C@@H](CC(=O)O)C(N)=O)NC(=O)[C@H](CCC(=O)O)NC(=O)[C@H](Cc2c[nH]cn2)NC(=O)[C@H](CC(N)=O)NC1=O`, for which the helicity in data set [1] is 5.2%.
Same read-out and setting: the figure for `CC(=O)N[C@@H](CC(=O)O)C(=O)N[C@@H](CCCCN)C(=O)N[C@H]1CSCc2ccc(cc2)CSC[C@@H](C(=O)N[C@@H](CCC(=O)O)C(=O)N[C@@H](CC(=O)O)C(N)=O)NC(=O)[C@H](CCC(=O)O)NC(=O)[C@H](Cc2c[nH]cn2)NC(=O)[C@H](CC(N)=O)NC1=O` is 5%; for `CC(=O)N[C@@H](CC(=O)O)C(=O)N[C@@H](CCCCN)C(=O)N[C@H]1Cn2cc(nn2)CCc2cn(nn2)C[C@@H](C(=O)N[C@@H](CCC(=O)O)C(=O)N[C@@H](CC(=O)O)C(N)=O)NC(=O)[C@H](CCC(=O)O)NC(=O)[C@H](Cc2c[nH]cn2)NC(=O)[C@H](CC(N)=O)NC1=O` it is 8.2%; for `CC(=O)N[C@@H](Cc1c[nH]cn1)C(=O)N[C@@H](CCC(=O)O)C(=O)N[C@@H]1Cc2cn(nn2)CCCC[C@@H](C(=O)N[C@@H](Cc2ccc(O)cc2)C(=O)N[C@@H](CCC(N)=O)C(N)=O)NC(=O)[C@H](CC(C)C)NC(=O)[C@H](CC(=O)O)NC(=O)[C@H](CCC(=O)O)NC1=O` it is 25.7%.
Same read-out and setting: to `CC(=O)N[C@@H](Cc1c[nH]cn1)C(=O)N[C@@H](CCC(=O)O)C(=O)N[C@H]1CCCCn2cc(nn2)C[C@H](C(=O)N[C@@H](Cc2ccc(O)cc2)C(=O)N[C@@H](CCC(N)=O)C(N)=O)NC(=O)[C@H](CC(C)C)NC(=O)[C@H](CC(=O)O)NC(=O)[C@H](CCC(=O)O)NC1=O` belongs 18.1%; to `CC(=O)N[C@@H](Cc1c[nH]cn1)C(=O)N[C@@H](CCC(=O)O)C(=O)N[C@H]1Cn2cc(nn2)CCc2cn(nn2)C[C@@H](C(=O)N[C@@H](Cc2ccc(O)cc2)C(=O)N[C@@H](CCC(N)=O)C(N)=O)NC(=O)[C@H](CC(C)C)NC(=O)[C@H](CC(=O)O)NC(=O)[C@H](CCC(=O)O)NC1=O`, 50.7%; to `CC(=O)N[C@@H](CC(=O)O)C(=O)N[C@@H](CCCCN)C(=O)N[C@H]1CC(=O)NCCCC[C@@H](C(=O)N[C@@H](CCC(=O)O)C(=O)N[C@@H](CC(=O)O)C(N)=O)NC(=O)[C@H](CCC(=O)O)NC(=O)[C@H](Cc2c[nH]cn2)NC(=O)[C@H](CC(N)=O)NC1=O` (Ac-DKDNHEKED-NH2; lactam 3-7), 37.2%.
`CC(=O)N[C@@H](CC(=O)O)C(=O)N[C@@H](CCCCN)C(=O)N[C@H]1CCCCNC(=O)C[C@@H](C(=O)N[C@@H](CCC(=O)O)C(=O)N[C@@H](CC(=O)O)C(=O)N[C@H]2CCCCNC(=O)C[C@@H](C(N)=O)NC(=O)[C@H](CCC(N)=O)NC(=O)[C@H](Cc3ccc(O)cc3)NC(=O)[C@H](Cc3ccccc3)NC2=O)NC(=O)[C@H](CCC(=O)O)NC(=O)[C@H](Cc2c[nH]cn2)NC(=O)[C@H](CC(N)=O)NC1=O` (Ac-DKKNHEDEDKFYQD-NH2; lactam 3-7, 10-14) had a helicity in data set [1] of 25.2%.
In data set [1], `CC(=O)N[C@@H](CC(=O)O)C(=O)N[C@@H](CCCCN)C(=O)N[C@@]1(C)CCC/C=C/CCC[C@@](C)(C(=O)N[C@@H](CCC(=O)O)C(=O)N[C@@H](CC(=O)O)C(N)=O)NC(=O)[C@H](CCC(=O)O)NC(=O)[C@H](Cc2c[nH]cn2)NC(=O)[C@H](CC(N)=O)NC1=O` (Ac-DK[S5]NHE[S5]ED-NH2; staple (E) 3-7) gave a helicity of 4.7%.
On to `CC(=O)N[C@@H](Cc1c[nH]cn1)C(=O)N[C@@H](CCC(=O)O)C(=O)N[C@H]1CC(=O)NCCCC[C@@H](C(=O)N[C@@H](Cc2ccc(O)cc2)C(=O)N[C@@H](CCC(N)=O)C(N)=O)NC(=O)[C@H](CC(C)C)NC(=O)[C@H](CC(=O)O)NC(=O)[C@H](CCC(=O)O)NC1=O` (Ac-HEDEDLKYQ-NH2; lactam 3-7), for which the helicity in data set [1] worked out at 35.1%.
The same measure, in the same setting: the figure for `CC(=O)N[C@@H](Cc1c[nH]cn1)C(=O)N[C@@H](CCC(=O)O)C(=O)N[C@H]1CCCCNC(=O)CC[C@@H](C(=O)N[C@@H](Cc2ccc(O)cc2)C(=O)N[C@@H](CCC(N)=O)C(N)=O)NC(=O)[C@H](CC(C)C)NC(=O)[C@H](CC(=O)O)NC(=O)[C@H](CCC(=O)O)NC1=O` (Ac-HEKEDLEYQ-NH2; lactam 3-7) is 4.6%; for `C=CCCC[C@](C)(NC(=O)[C@H](CC(C)C)NC(=O)[C@H](CC(=O)O)NC(=O)[C@H](CCC(=O)O)NC(=O)[C@](C)(CCCC=C)NC(=O)[C@H](CCC(=O)O)NC(=O)[C@H](Cc1c[nH]cn1)NC(C)=O)C(=O)N[C@@H](Cc1ccc(O)cc1)C(=O)N[C@@H](CCC(N)=O)C(N)=O` (Ac-HE[S5]EDL[S5]YQ-NH2) it is 11%.
In the case of `CC(=O)N1CCC[C@H]1C(=O)N[C@@H](CC(=O)O)C(=O)N[C@@H](CCCCN)C(=O)N[C@H]1CCCCNC(=O)C[C@@H](C(=O)N[C@@H](CCC(=O)O)C(=O)N[C@@H](CC(=O)O)C(N)=O)NC(=O)[C@H](CCC(=O)O)NC(=O)[C@H](Cc2c[nH]cn2)NC(=O)[C@H](CC(N)=O)NC1=O` (Ac-PDKKNHEDED-NH2; lactam 4-8), the helicity in data set [1] was determined as 89.7%.
On the same count and under the same terms, to `CC(=O)N1CCC[C@H]1C(=O)N[C@@H](Cc1c[nH]cn1)C(=O)N[C@@H](CCC(=O)O)C(=O)N[C@H]1CCCCNC(=O)C[C@@H](C(=O)N[C@@H](Cc2ccc(O)cc2)C(=O)N[C@@H](CCC(N)=O)C(N)=O)NC(=O)[C@H](CC(C)C)NC(=O)[C@H](CC(=O)O)NC(=O)[C@H](CCC(=O)O)NC1=O` (Ac-PHEKEDLDYQ-NH2; lactam 4-8) belongs 56.7%.
Usually half-life stands for the time in which the quantity being followed falls by half. High values mean slow loss, low ones fast loss. For the molecule `CC(=O)N[C@@H](CC(=O)O)C(=O)N[C@@H](CCCCN)C(=O)N[C@H]1CCCCNC(=O)C[C@@H](C(=O)N[C@@H](CCC(=O)O)C(=O)N[C@@H](CC(=O)O)C(N)=O)NC(=O)[C@H](CCC(=O)O)NC(=O)[C@H](Cc2c[nH]cn2)NC(=O)[C@H](CC(N)=O)NC1=O` [compound 3] (Ac-DKKNHEDED-NH2; lactam 3-7), in data set [1], the helicity stood at 49.9%. Besides, the half-life in data set [2] was 2.9 h.
In turn, `CC(=O)N[C@@H](CC(=O)O)C(=O)N[C@@H](CCCCN)C(=O)N[C@@]1(C)CCC/C=C\CCC[C@@](C)(C(=O)N[C@@H](CCC(=O)O)C(=O)N[C@@H](CC(=O)O)C(N)=O)NC(=O)[C@H](CCC(=O)O)NC(=O)[C@H](Cc2c[nH]cn2)NC(=O)[C@H](CC(N)=O)NC1=O` [peptide 10] (Ac-DK[S5]NHE[S5]ED-NH2; staple (Z) 3-7) came in with a helicity in data set [1] of 68.9%. In data set [2], this molecule had a half-life of 4 h.
In the case of `CC(=O)N[C@@H](Cc1c[nH]cn1)C(=O)N[C@@H](CCC(=O)O)C(=O)N[C@@]1(C)CCC/C=C/CCC[C@@](C)(C(=O)N[C@@H](Cc2ccc(O)cc2)C(=O)N[C@@H](CCC(N)=O)C(N)=O)NC(=O)[C@H](CC(C)C)NC(=O)[C@H](CC(=O)O)NC(=O)[C@H](CCC(=O)O)NC1=O` [peptide 11, Ac-NH-His-Glu-[S5-Glu-Asp-Leu-S5]-Tyr-Gln-CO-NH2] (Ac-HE[S5]EDL[S5]YQ-NH2; staple (E) 3-7), the “Degradation / stability in rat plasma over 24 h” value in data set [3] is reported as “significantly more stable”. The molecule further registered a helicity in data set [1] of 53.5%. The half-life in data set [2] is 6.8 h.
Ac-DKFNHEAED-NH2 [peptide 1]: the “Degradation / stability in rat plasma over 24 h” value in data set [3] is reported as “levels of degradation similar to those of 8-amino acid-long AngII”.
On the same count and under the same terms, to Ac-HEAEDLFYQ-NH2 [peptide 2] belongs “levels of degradation similar to those of 8-amino acid-long AngII”.
